The values below come from publication PMC1807967.

Common to all, as to assay: EMSA
The target of data set [1] is T1, ttSmr (Thermus thermophilus, UniProt Q5SHT5 621-744).
T1 sequence: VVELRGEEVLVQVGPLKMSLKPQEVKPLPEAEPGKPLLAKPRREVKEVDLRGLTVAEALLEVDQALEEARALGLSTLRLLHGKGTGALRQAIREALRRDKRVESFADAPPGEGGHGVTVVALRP

The target in data set [2] is T2, ttMutS2 (Thermus thermophilus, UniProt Q5SHT5 1-744).
T2 sequence: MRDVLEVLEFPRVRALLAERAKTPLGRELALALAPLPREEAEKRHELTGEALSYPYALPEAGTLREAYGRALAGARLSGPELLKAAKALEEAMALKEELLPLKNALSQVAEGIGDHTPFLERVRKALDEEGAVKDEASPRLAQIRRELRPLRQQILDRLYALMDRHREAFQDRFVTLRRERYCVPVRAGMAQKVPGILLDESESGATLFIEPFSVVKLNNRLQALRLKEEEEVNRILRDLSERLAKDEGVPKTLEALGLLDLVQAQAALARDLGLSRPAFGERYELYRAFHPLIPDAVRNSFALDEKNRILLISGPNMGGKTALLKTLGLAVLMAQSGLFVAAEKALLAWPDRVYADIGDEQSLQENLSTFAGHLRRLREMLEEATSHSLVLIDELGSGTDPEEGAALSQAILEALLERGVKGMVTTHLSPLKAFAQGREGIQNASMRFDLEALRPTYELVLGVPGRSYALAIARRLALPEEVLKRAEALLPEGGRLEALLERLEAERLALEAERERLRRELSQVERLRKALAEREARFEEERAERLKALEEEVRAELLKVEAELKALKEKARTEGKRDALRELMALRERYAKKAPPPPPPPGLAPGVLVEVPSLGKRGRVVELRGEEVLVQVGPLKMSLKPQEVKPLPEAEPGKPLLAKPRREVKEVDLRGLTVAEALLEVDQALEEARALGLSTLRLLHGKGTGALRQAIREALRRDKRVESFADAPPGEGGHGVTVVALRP

Data set [3] addresses T3, N60-ttMutS2 (Smr-deleted) (Thermus thermophilus, UniProt Q5SHT5 1-540).
T3 sequence: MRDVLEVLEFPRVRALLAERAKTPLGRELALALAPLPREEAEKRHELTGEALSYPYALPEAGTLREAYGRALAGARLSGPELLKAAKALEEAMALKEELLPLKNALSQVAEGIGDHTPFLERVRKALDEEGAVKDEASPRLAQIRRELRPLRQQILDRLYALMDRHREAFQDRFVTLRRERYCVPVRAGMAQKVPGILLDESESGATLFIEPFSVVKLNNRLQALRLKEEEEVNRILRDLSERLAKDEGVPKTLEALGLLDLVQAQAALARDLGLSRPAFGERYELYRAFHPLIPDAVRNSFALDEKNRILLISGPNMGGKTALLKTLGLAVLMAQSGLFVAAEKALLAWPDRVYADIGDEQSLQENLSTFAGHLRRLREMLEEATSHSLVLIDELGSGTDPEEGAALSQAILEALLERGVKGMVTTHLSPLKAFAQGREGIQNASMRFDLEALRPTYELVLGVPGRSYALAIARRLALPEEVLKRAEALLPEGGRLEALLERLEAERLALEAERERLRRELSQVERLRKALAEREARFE

The target of data set [4] is T2, ttMutS2. This is another data set of the same source.
For data set [5], the target named is T3, N60-ttMutS2 (Smr-deleted). The source holds these as a separate data set.

Where two headings read alike, the source gives them in different places.

As to ATGTGAATCAGTATGGTTTC (ssDNA) [20mer ssDNA], the binding result is “binds” in data set [1], “no binding” in data set [2] and “no binding” in data set [3].

B1: 20 bp dsDNA (dsDNA)
DNA 1: ATGTGAATCAGTATGGTTTC
DNA 2: GAAACCATACTGATTCACAT
On to B1, for which the binding result in data set [4] and in data set [5] was “binds” throughout.
